Patent US6361968

Key:
[1] = target: bHLH MAX (unmodified Max) (UniProt P61244); test: homodimer, dimerization study of FIG. 9
[2] = target: c-Myc bHLH protein (murine) (UniProt P01108); test: heterodimer with c-Myc, dimerization study of FIG. 9
c-Jun (unmodified) = c-Jun (unmodified) (UniProt P05412); test: thermal melt of the mixture (FIG. 4)
Sequence of c-Jun (unmodified) (P05412 241-331 limits assumed): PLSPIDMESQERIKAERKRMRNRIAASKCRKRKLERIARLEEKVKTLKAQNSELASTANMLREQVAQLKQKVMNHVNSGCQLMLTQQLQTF

Sequence of c-Myc bHLH protein (murine) (P01108 368-454 limits assumed, form in doubt): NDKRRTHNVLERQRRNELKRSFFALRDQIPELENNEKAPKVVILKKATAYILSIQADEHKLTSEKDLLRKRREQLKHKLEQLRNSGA

| Substance | Kd [1] | Kd [2] | Tm (c-Jun (unmodified)) |
| --- | --- | --- | --- |
| bHLH MAX (unmodified Max) (from UniProt P61244 23-113) | 6 µM | 0.03 µM | – |
| 0heptad-Fos (c-Fos with the basic region deleted) (designed binder) | – | – | 53 °C |
